The values below come from a protein production outcome set (Wang et al. 2014).

A short description of the data set: label from the status in PepcDB records.

Take “YVFTVELERGPSGLGMGLIDGMHTHLGAPGLYIQTLLPGSPAAADGRLSLGDRILEVNGSSLLGLGYLRAVDLIRHGGKKMRFLVAKSDVETAKKIH”: the protein production entry was “not failed”.
